Laboratory results: patent US20100227824A1 (SYMTHERA CANADA, published 2010)
Ends that are not written are not given here. * marks the point of attachment. Biotin = O=C1N[C@H]2[C@H](CS[C@H]2CCCCC(=O)*)N1

T1: I-309 (CCL1) (UniProt P22362 23-96, limits assumed)
T1 construct: Bought chemokine
T1 sequence (looked up): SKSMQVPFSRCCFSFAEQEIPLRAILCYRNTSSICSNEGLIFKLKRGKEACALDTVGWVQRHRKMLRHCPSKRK

T2: TECK (CCL25) (UniProt O15444 24-150)
T2 construct: Bought chemokine
T2 sequence (looked up): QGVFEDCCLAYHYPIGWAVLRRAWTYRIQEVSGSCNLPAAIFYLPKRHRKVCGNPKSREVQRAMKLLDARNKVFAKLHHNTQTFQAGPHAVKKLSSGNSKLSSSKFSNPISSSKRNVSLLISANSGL

T3: Mig (CXCL9) (UniProt Q07325 23-125)
T3 construct: Bought chemokine
T3 sequence (looked up): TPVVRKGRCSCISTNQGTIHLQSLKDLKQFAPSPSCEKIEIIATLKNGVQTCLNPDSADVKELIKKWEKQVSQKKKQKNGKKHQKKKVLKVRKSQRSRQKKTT

T4: Eotaxin 3 (CCL26) (UniProt Q9Y258 24-94)
T4 construct: Bought chemokine
T4 sequence (looked up): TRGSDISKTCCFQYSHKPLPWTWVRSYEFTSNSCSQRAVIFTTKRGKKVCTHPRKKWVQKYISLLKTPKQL

T5: Exodus-2 (CCL21) (UniProt O00585 24-134)
T5 construct: Bought chemokine
T5 sequence (looked up): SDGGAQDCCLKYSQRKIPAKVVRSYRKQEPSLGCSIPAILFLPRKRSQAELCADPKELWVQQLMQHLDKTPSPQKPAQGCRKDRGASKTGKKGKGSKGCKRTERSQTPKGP

T6: RANTES (CCL5) (UniProt P13501 24-91)
T6 construct: Bought chemokine
T6 sequence (looked up): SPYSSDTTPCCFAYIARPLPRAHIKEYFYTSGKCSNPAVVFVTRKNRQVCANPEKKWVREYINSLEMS

T7: IL-8 (CXCL8) (UniProt P10145 28-99, limits assumed)
T7 construct: also called IL-8(72aa); IL-8(77aa)
T7 sequence (looked up): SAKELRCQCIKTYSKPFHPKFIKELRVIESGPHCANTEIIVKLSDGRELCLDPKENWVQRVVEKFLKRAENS


Experiments:
MIP-3α (CCL20) = molecular target: T8, MIP-3α (CCL20) (UniProt P78556 27-96); experiment: micro-array, biotinylated peptide on printed CK
T8 construct: Bought chemokine
T8 sequence (P78556 27-96 limits assumed): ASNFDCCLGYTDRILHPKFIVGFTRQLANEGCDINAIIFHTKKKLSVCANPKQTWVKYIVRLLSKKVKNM

I-309 (CCL1) = molecular target: T1, I-309 (CCL1); experiment: micro-array, biotinylated peptide on printed CK
Eotaxin (CCL11) = molecular target: T9, Eotaxin (CCL11) (UniProt P51671 24-97); experiment: micro-array, biotinylated peptide on printed CK
T9 construct: Bought chemokine
T9 sequence (P51671 24-97 limits assumed): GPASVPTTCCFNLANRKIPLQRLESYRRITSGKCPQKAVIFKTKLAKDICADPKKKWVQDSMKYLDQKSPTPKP

SDF-1β (CXCL12) = molecular target: T10, SDF-1β (CXCL12) (UniProt P48061 22-93); experiment: micro-array, biotinylated peptide on printed CK
T10 construct: Beta isoform of CXCL12; also called SDFβ
T10 sequence (P48061 22-93 limits assumed): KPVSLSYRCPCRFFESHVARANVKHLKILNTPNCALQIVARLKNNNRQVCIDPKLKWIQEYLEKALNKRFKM

TECK (CCL25) = molecular target: T2, TECK (CCL25); experiment: micro-array, biotinylated peptide on printed CK
Mig (CXCL9) [1] = molecular target: T3, Mig (CXCL9); experiment: micro-array, biotinylated peptide on printed CK
Eotaxin 3 (CCL26) = molecular target: T4, Eotaxin 3 (CCL26); experiment: micro-array, biotinylated peptide on printed CK
SDF-1α (CXCL12) = molecular target: T11, SDF-1α (CXCL12) (UniProt P48061-2 22-89); experiment: micro-array, biotinylated peptide on printed CK
T11 construct: Alpha isoform of CXCL12; also called SDFα
T11 sequence (P48061 22-89 limits assumed): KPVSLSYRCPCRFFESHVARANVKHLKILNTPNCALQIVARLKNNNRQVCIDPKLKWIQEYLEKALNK

MCP-1 (CCL2) = molecular target: T12, MCP-1 (CCL2) (UniProt P13500 24-99); experiment: micro-array, biotinylated peptide on printed CK
T12 construct: Bought chemokine
T12 sequence (P13500 24-99 limits assumed): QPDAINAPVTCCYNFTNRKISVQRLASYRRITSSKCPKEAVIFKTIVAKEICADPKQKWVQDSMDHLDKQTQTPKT

MCP-4 (CCL13) = molecular target: T13, MCP-4 (CCL13) (UniProt Q99616 24-98); experiment: micro-array, biotinylated peptide on printed CK
T13 construct: Bought chemokine
T13 sequence (Q99616 24-98 limits assumed): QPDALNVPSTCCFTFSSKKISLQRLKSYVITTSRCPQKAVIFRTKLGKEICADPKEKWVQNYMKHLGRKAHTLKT

Exodus-2 (CCL21) = molecular target: T5, Exodus-2 (CCL21); experiment: micro-array, biotinylated peptide on printed CK
RANTES (CCL5) = molecular target: T6, RANTES (CCL5); experiment: micro-array, biotinylated peptide on printed CK
Mig (CXCL9) [2] = molecular target: T3, Mig (CXCL9); experiment: SPR, ProteOn XPR36, GLM chip
Method: (§1) Surface Plasmon Resonance (SPR): SPR was performed to make a quantitative determination of CK-peptide affinity. SPR measures the apparent equilibrium dissociation constant (KD) of the CK-binding peptide in the CK-peptide complex. KD is the ratio of the rate constants, Kd (1/s) and Kₐ (1/Ms), Kd/Kₐ. SPR was done with the ProteOn XPR36-Protein Interaction Array System (BioRad, Israel) with the Sensor Chip, GLM (sensor range 12-15 K response units).
(§2) Summary of Results: Affinity of Chemokine—Peptide Inteaction. […] The affinity with which peptides interact with CKs is relevant for low affinity reagents that are intended to engage multiple disease-related target proteins. SPR analysis was employed to determine the apparent equilibrium dissociation constants (KD) of CK-peptide complexes. […] Peptide binding in the micro-milli molar range is low affinity interaction. SPR analysis also corroborated differential binding measurements made by the micro-array analysis (FIG. 25b).

IL-8 (CXCL8) = molecular target: T7, IL-8 (CXCL8); experiment: SPR, ProteOn XPR36, GLM chip
Method: as §1, §2

| Binder | binding result (MIP-3α (CCL20)) | binding result (I-309 (CCL1)) | Relative Fluorescence Units (RFU) (Eotaxin (CCL11)) | binding result (SDF-1β (CXCL12)) | binding result (TECK (CCL25)) | binding result (Mig (CXCL9) [1]) | Relative Fluorescence Units (RFU) (Eotaxin 3 (CCL26)) | binding result (SDF-1α (CXCL12)) | binding result (MCP-1 (CCL2)) | Relative Fluorescence Units (RFU) (MCP-4 (CCL13)) | binding result (Exodus-2 (CCL21)) | Relative Fluorescence Units (RFU) (RANTES (CCL5)) | Kd (Mig (CXCL9) [2]) [µM] | Kd (IL-8 (CXCL8)) [µM] |
| --- | --- | --- | --- | --- | --- | --- | --- | --- | --- | --- | --- | --- | --- | --- |
| Biotin-LFGNDCE (Synthetic biotinylated peptide, not phage-presented) [Chemokine Binding Peptide 5 (CBP5)] | binds | binds | > 2500 | binds | binds | binds | > 2500 | binds | binds | > 2500 | binds | > 2500 |  |  |
| VTTFFDYDYGAPC (Peptide used in SPR; also called CB6R2) [CBP6 (VTTFFDYDYGAPC, from the N-terminal of CCR2)] |  |  |  |  |  |  |  |  |  |  |  |  | 28.2 | 1060 |
